In patent US20140363441A1 (priority 2013, published 2014):
Changes are numbered by the printed parent chain. Several values for one entry are separate records, joined by “and”; a condition that tells them apart may be missing. Equal values may be shown once. Entries after “also recorded” stand apart in the source; their conditions may differ.

B1: 3244_H04 (antibody, V domains shown)
VH: EVQLVESGGGLVQPGGSLRLSCTASGLSVSSTYMNWVRQAPGKGLEWVSVFYSETRTYYADSVKGRFTVSRHNSNNTLYLQMNSLRAEDTAVYYCARVQRLSYGMDVWGQGTTVTVSS
VL: DIQMTQSPSSLSASVGDRVTITCRASQSISTYLNWYQKRPGKAPKLLVYGASSLQSGVPSRFSGSGSGTDFTLTIASLQPEDSAVYYCQQTYSIPLFGQGTRLEIK
B2: 3245_O19 (antibody, V domains shown)
VH: B1 VH with A87V
VL: B1 VL with S53T, V85T
B3: 3252_C13 (antibody, V domains shown)
VH: QVQLQESGPGLVKPSETLSLTCTVSGASISSDYWSWIRLPPGKGLEWIGYIYNRGSTKYTPSLKSRVTISLDTAENQFSLRLRSVTAADTAIYYCARHVGGHTYGIDYWGQGTLVTVSS
VL: DIQMTQSPSSLSASVGDRVTITCRASQSISNYLNWYQHKPGEAPKLLNYAASSLQSGVPSRFSASGSGTDFTLTISSLQPEDFATYYCQQSYNTPITFGQGTRLEIK
B4: 3420_I23 (antibody, V domains shown)
VH: QVQLQESGPGLVKPSETLSVTCKVSGDSISSYSWSWIRQPPGKGLEWVGYLYYSGSTKYNPSLKSRTTISVDTSTNQLSLKLSFVTAADTAVYFCARTGSESTTGYGMDVWGQGTTVTVSS
VL: B3 VL with N31T, H38Q, E42K, N48I, Q55H, A64G, T72A, N93S, T94P
B5: 3255_J06 (antibody, V domains shown)
VH: B3 VH with I92V
VL: B3 VL with T74S, S77G, Q100P
B6: 3362_B11 (antibody, V domains shown)
VH: QVQLQASGPGLVKPSETLSLTCTVSGDSITSGAYYWTWIRQHPGKGLEWIGYIYYSGNTYYNPSLKSRVTISLDTSKNQFSLKVNSVTAADTAVYYCARAASTSVLGYGMDVWGQGTTVTVSS
VL: B3 VL with N31R, H38Q, K39E, E42K, N48V, A64G, N93S, I96L
B7: 3136_G05 (antibody, V domains shown)
VH: QVQLQESGPGLVKPSETLSLTCSVSGGSISSDFWSWIRQPPGKGLEWIGYVYNRGSTKYSPSLKSRVTISADMSKNQFSLNMSSVTAADTAVYYCAKNGRSSTSWGIDVWGKGTTVTVSS
VL: DIQMTQSPSSLSASVGDRLTITCRASQSISTYLHWYQQKPGKAPKLLIYAASSLQSGVPSRFSGSRSGTDFTLTISSLQPDDFATYYCQQSYSPPLTFGPGTKVDMK
B8: 3241_G23 (antibody, V domains shown)
VH: QVQLQQSGPGLVKPSQTLSLTCTVSGGPVSGGGYSWNWIRQRPGQGLEWVGFMFHSGSPRYNPTLKSRITISVDTSKNLVSLKLSSVTAADTAVYFCARVGQMDKYYAMDVWGQGTTVTVSS
VL: DIQMTQSPSSLSSSVGDRVTITCRASQSIGAYVNWYQQKAGKAPQVLIFGASNLQSGVPSRFSGSGSGTDFTLTISSLQPEDFATYFCQQTYSTPITFGQGTRLEIK
B9: 3248_P18 (antibody, V domains shown)
VH: QVQLQESGPGLVKPSETLSLTCTVSGGSISAYHWSWIRQPPGKGLEWIGHIFDSGSTYYNPSLKSRVTISLDASKNQLSLRLTSVTASDTAIYYCARPLGSRYYYGMDVWGQGTTVTVSS
VL: DIQMTQSPSSLSASVGDRVTITCRASQSISRYLNWYQQKPGKAPKLLIYGASTLQNGAPSRFSGSGSGTDFTLTISSLQPEDSATYLCQQSYSVPAFGGGTKVEVK
B10: 8I10 (TCN-032) (antibody, V domains shown)
VH: QVQLQESGPGLVKPSETLSLTCTVSGSSISNYYWSWIRQSPGKGLEWIGFIYYGGNTKYNPSLKSRVTISQDTSKSQVSLTMSSVTAAESAVYFCARASCSGGYCILDYWGQGTLVTVS
VL: DIQMTQSPSSLSASVGDRVTITCRASQNIYKYLNWYQQRPGKAPKGLISAASGLQSGVPSRFSGSGSGTDFTLTITSLQPEDFATYYCQQSYSPPLTFGGGTRVEIK
B11: 3259_J21 (antibody, V domains shown)
VH: QVQLQESGPRVVRPSETLSLTCTVSGGSISSYNWIWIRQPPGKGLEWIGHIYDYGRTFYNSSLQSRPTISVDASKNQLSLRLTSVTASDTAVYYCARPLGILHYYAMDLWGQGTTVTVSS
VL: DIQMTQSPLSVSVSVGDRVTIACRASQSIDKFLNWYQQKPGKAPKLLIYGASNLHSGAPSRFSASGSGTDFTLTITNIQTEDFATYLCQQSFSVPAFGGGTKVEIK
B12: 3260_D19 (antibody, V domains shown)
VH: DMQLVESGGGLVPPGGSLRLSCAASGFSVSDNYINWVRQAPGKGLDWVSVFYSADRTSYADSVKGRFTVSSHDSKNTVYLQMNSLRAEDTAVYYCARVQKSYYGMDVWGQGTTVTVSS
VL: GIQMTQSPSSLSASVGDRVTITCRASQSISRYLNWYLQKPGKAPKLLISGASSLQSGVPSRFSGTGSGTEFTLTISSLQPEDFATYYCQQTFSIPLFGQGTKVEIK
B13: 3242_P05 (antibody, V domains shown)
VH: B12 VH
VL: B12 VL
B14: 3139_P23 (antibody, V domains shown)
VH: QVQLQESGPRLVKPSESLSLTCTVSGGSISNSFWGWIRQPPGEGLEWIGYVYNSGNTKYNPSLKSRVTISRDTSKSQLYMKLRSVTAADTAVYYCARHDDASHGYSISWGHGTLVTVSS
VL: DIQMTQSPSSLSASVGDRVTITCRASQTISTYLNWYQQKSGKAPKLLIYAASGLQSGVPSRFSGSGSGTDFTLTISSLQPEDFATYFCQQSYNTPLTFGQGTKVEIK
B15: 23K12 (TCN-031) (antibody, V domains shown)
VH: EVQLVESGGGLVQPGGSLRISCAASGFTVSSNYMSWVRQAPGKGLEWVSVIYSGGSTYYADSVKGRFSFSRDNSKNTVFLQMNSLRAEDTAVYYCARCLSRMRGYGLDVWGQGTTVTVS
VL: DIQMTQSPSSLSASVGDRVTITCRTSQSISSYLNWYQQKPGKAPKLLIYAASSLQSGVPSRFSGSGSGTDFTLTISGLQPEDFATYYCQQSYSMPAFGQGTKLEIK
B16: 3253_P10 (antibody, V domains shown)
VH: QVQLQESGPGLLKPSDTLALTCTVSGGSITSDYWSWIRQPPGRGLDWIGFFYNGGSTKYNPSLKSRVTISADTSKNQLSLKLTSVTAADTGVYYCARHDAKFSGSYYVASWGQGTRVTVSS
VL: DIQMTQSPSSLSASVGDRVTISCRASQSISTYLNWYQQQPGKAPKVLISGATDLQSGVPSRFSGSGSGTDFTLTISSLQPEDFATYYCQQSYNTPLIFGQGTKLEIK
B17: 3244_I10 (antibody, V domains shown)
VH: B16 VH
VL: B16 VL with S49F, D53N
B18: 3243_J07 (antibody, V domains shown)
VH: B16 VH with A100V
VL: B16 VL with D53N

Columns and labels:
[1] = target: influenza A/Puerto Rico/8/34 (PR8) virus particles (M2 protein on the virion) (influenza A virus H1N1 A/Puerto Rico/8/34) (UniProt P06821); assay: affinity of FAb fragments on whole PR8 virus
[2] = target: influenza A/Puerto Rico/8/34 (PR8) virus particles (M2 protein on the virion) (influenza A virus H1N1 A/Puerto Rico/8/34) (UniProt P06821); assay: surface plasmon resonance, Fab fragment on influenza virus
[3] = test system: H5N1 (A/Vietnam/1203/04); design: species or system balb/c mice; conditions: mouse, in vivo
[4] = test system: H5N1 (A/Vietnam/1203/04); design: species or system balb/c mice; conditions: mouse, in vivo; remark: listed apart in the source
[5] = target: M2 protein of influenza A/Hong Kong/483/1997 (H5N1), expressed on cells (influenza A virus H5N1 A/Hong Kong/483/97)
[6] = target: HVIR1; assay: peptide ELISA, mAb 5 µg/mL

| Molecule | MFI [5] | further results |
| --- | --- | --- |
| ch14C2 Fab fragment |  | Kd [1]: 4 µM; koff [1]: 0.00286 s⁻¹; kon [1]: 500 M⁻¹ s⁻¹; Kd [2]: 4 µM; koff [2]: 0.0018 s⁻¹; kon [2]: 500 M⁻¹ s⁻¹ |
| CCOC(=O)C1=C[C@@H](OC(CC)CC)[C@H](NC(C)=O)[C@@H](N)C1 [oseltamivir] |  | percentage of weight remaining [3]: completely protected; also recorded: retained more weight; survival rate [4]: extinction of the population prior to the end of the therapy |
| B1 | 963 MFI |  |
| B2 | 919 MFI |  |
| B3 | 449 MFI |  |
| B4 | 112 MFI |  |
| B5 | 442 MFI |  |
| B6 | 218 MFI |  |
| B7 | 109 MFI |  |
| B8 | 1700 MFI |  |
| B9 | 967 MFI |  |
| B10 | 754 MFI and 1080 MFI | ELISA A450 [6]: 0.11 |
| B11 | 1670 MFI |  |
| B12 | 846 MFI |  |
| B13 | 596 MFI |  |
| B14 | 110 MFI |  |
| B15 |  | ELISA A450 [6]: 0.21 |
| B16 | 43 MFI |  |
| B17 | 434 MFI |  |
| B18 | 131 MFI |  |
